Results published in PMC3130059.

Experiments:
[1] = target: dansyl-calmodulin (dansyl-CaM) (bovine) (UniProt P62157); assay: other fluorescence titration; 1 µM dansyl-CaM titrated with Ras protein (GppNHp form); […]; 20 mM HEPES pH 7.4, 150 mM NaCl, 1 mM CaCl2, 1 mM MgCl2; excitation 335 nm, emission at 480 nm
[2] = target: H-Ras-(KKKKKK), chimeric H-Ras with the polylysine region of K-RasB at 175-180 (UniProt P01112); assay: ITC; 0.3–0.8 mM CaM in the syringe injected into 20–40 µM Ras protein (GppNHp form) in the cell; […]; 20 mM HEPES pH 7.4, 150 mM NaCl, 1 mM CaCl2, 1 mM MgCl2; single set of identical sites model
[3] = target: K-RasB-K175A (UniProt P01116); assay: as above
[4] = target: farnesylated K-RasB (UniProt P01116); assay: as above
[5] = target: farnesylated K-RasB-K175A (UniProt P01116); assay: as above
[6] = target: full-length K-RasB (unprocessed) (UniProt P01116); assay: as above

Substance	Kd [1] [µM]	Kd [2] [µM]	dH [2] [kcal/mol]	stoichiometry N [2]	dH [3] [kcal/mol]	stoichiometry N [3]	dH [4] [kcal/mol]	stoichiometry N [4]	dH [5] [kcal/mol]	stoichiometry N [5]	dH [6] [kcal/mol]	stoichiometry N [6]
H-Ras-(KKKKKK), chimeric H-Ras with the polylysine region of K-RasB at 175-180 (from UniProt P01112 1-189) (natural protein)	2.53	–	–	–	–	–	–	–	–	–	–	–
calmodulin (CaM), Ca^2+-saturated, from bovine brain (from UniProt P62157 1-149) (natural protein)	–	3.89	6.16	0.903	2.48	0.995	3.33	1.13	1.01	0.972	3.63	0.924
